Experimental data: publication PMC7961048 (2021)
Read-outs that look alike come from different tables or passages of the source. Non-standard residues stand in square brackets, D forms with d. No end group written: not given here. *: point of attachment. Biotin = O=C1N[C@H]2[C@H](CS[C@H]2CCCCC(=O)*)N1; pT = C[C@@H](OP(=O)(O)O)[C@H](N)C(=O)O; ttds = NCCCOCCOCCOCCCNC(=O)CCC(=O)*

T1: full-length human 14-3-3γ fused to the C terminus of MBP (human, UniProt P61981 1-247)
T1 chain: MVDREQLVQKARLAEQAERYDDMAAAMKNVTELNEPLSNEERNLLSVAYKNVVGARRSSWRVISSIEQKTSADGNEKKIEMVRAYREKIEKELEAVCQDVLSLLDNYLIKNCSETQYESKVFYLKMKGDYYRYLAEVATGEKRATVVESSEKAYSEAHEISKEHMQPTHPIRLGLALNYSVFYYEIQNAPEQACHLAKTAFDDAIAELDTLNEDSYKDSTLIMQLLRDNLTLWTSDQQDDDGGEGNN

T2: full-length human 14-3-3ζ fused to the C terminus of MBP (human, UniProt P63104 1-245)
T2 chain: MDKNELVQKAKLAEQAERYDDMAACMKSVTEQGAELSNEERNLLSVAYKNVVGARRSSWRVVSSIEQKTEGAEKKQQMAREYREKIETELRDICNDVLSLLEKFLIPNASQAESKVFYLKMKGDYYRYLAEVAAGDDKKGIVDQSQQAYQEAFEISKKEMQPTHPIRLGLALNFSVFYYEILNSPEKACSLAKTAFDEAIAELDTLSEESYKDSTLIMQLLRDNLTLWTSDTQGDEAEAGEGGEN

B1: full-length human 14-3-3ε fused to the C terminus of MBP (natural protein)
chain: MDDREDLVYQAKLAEQAERYDEMVESMKKVAGMDVELTVEERNLLSVAYKNVIGARRASWRIISSIEQKEENKGGEDKLKMIREYRQMVETELKLICCDILDVLDKHLIPAANTGESKVFYYKMKGDYHRYLAEFATGNDRKEAAENSLVAYKAASDIAMTELPPTHPIRLGLALNFSVFYYEILNSPDRACRLAKAAFDDAIAELDTLSEESYKDSTLIMQLLRDNLTLWTSDMQGDGEEQNKEALQDVEDENQ
B2: full-length human 14-3-3η fused to the C terminus of MBP (natural protein)
chain: MGDREQLLQRARLAEQAERYDDMASAMKAVTELNEPLSNEDRNLLSVAYKNVVGARRSSWRVISSIEQKTMADGNEKKLEKVKAYREKIEKELETVCNDVLSLLDKFLIKNCNDFQYESKVFYLKMKGDYYRYLAEVASGEKKNSVVEASEAAYKEAFEISKEQMQPTHPIRLGLALNFSVFYYEIQNAPEQACLLAKQAFDDAIAELDTLNEDSYKDSTLIMQLLRDNLTLWTSDQQDEEAGEGN
B3: full-length human 14-3-3σ fused to the C terminus of MBP (natural protein)
chain: MERASLIQKAKLAEQAERYEDMAAFMKGAVEKGEELSCEERNLLSVAYKNVVGGQRAAWRVLSSIEQKSNEEGSEEKGPEVREYREKVETELQGVCDTVLGLLDSHLIKEAGDAESRVFYLKMKGDYYRYLAEVATGDDKKRIIDSARSAYQEAMDISKKEMPPTNPIRLGLALNFSVFHYEIANSPEEAISLAKTTFDEAMADLHTLSEDSYKDSTLIMQLLRDNLTLWTADNAGEEGGEAPQEPQS
B4: unfused 14-3-3τ devoid of the flexible C-terminal tail (domain or fragment)
chain: MEKTELIQKAKLAEQAERYDDMATCMKAVTEQGAELSNEERNLLSVAYKNVVGGRRSAWRVISSIEQKTDTSDKKLQLIKDYREKVESELRSICTTVLELLDKYLIANATNPESKVFYLKMKGDYFRYLAEVACGDDRKQTIDNSQGAYQEAFDISKKEMQPTHPIRLGLALNFSVFYYEILNNPELACTLAKTAFDEAIAELDTLNEDSYKDSTLIMQLLRDNLTLWT
B5: full-length human 14-3-3τ fused to the C terminus of MBP (natural protein)
chain: MEKTELIQKAKLAEQAERYDDMATCMKAVTEQGAELSNEERNLLSVAYKNVVGGRRSAWRVISSIEQKTDTSDKKLQLIKDYREKVESELRSICTTVLELLDKYLIANATNPESKVFYLKMKGDYFRYLAEVACGDDRKQTIDNSQGAYQEAFDISKKEMQPTHPIRLGLALNFSVFYYEILNNPELACTLAKTAFDEAIAELDTLNEDSYKDSTLIMQLLRDNLTLWTSDSAGEECDAAEGAEN
B6: unfused 14-3-3ε devoid of the flexible C-terminal tail (domain or fragment)
chain: MDDREDLVYQAKLAEQAERYDEMVESMKKVAGMDVELTVEERNLLSVAYKNVIGARRASWRIISSIEQKEENKGGEDKLKMIREYRQMVETELKLICCDILDVLDKHLIPAANTGESKVFYYKMKGDYHRYLAEFATGNDRKEAAENSLVAYKAASDIAMTELPPTHPIRLGLALNFSVFYYEILNSPDRACRLAKAAFDDAIAELDTLSEESYKDSTLIMQLLRDNLTLWTS
B7: full-length human 14-3-3β fused to the C terminus of MBP (natural protein)
chain: MTMDKSELVQKAKLAEQAERYDDMAAAMKAVTEQGHELSNEERNLLSVAYKNVVGARRSSWRVISSIEQKTERNEKKQQMGKEYREKIEAELQDICNDVLELLDKYLIPNATQPESKVFYLKMKGDYFRYLSEVASGDNKQTTVSNSQQAYQEAFEISKKEMQPTHPIRLGLALNFSVFYYEILNSPEKACSLAKTAFDEAIAELDTLNEESYKDSTLIMQLLRDNLTLWTSENQGDEGDAGEGEN
B8: unfused 14-3-3β devoid of the flexible C-terminal tail (domain or fragment)
chain: MTMDKSELVQKAKLAEQAERYDDMAAAMKAVTEQGHELSNEERNLLSVAYKNVVGARRSSWRVISSIEQKTERNEKKQQMGKEYREKIEAELQDICNDVLELLDKYLIPNATQPESKVFYLKMKGDYFRYLSEVASGDNKQTTVSNSQQAYQEAFEISKKEMQPTHPIRLGLALNFSVFYYEILNSPEKACSLAKTAFDEAIAELDTLNEESYKDSTLIMQLLRDNLTLWT

How the values were obtained:
Test in all cases: FP
[1] = molecular target: B3
[2] = molecular target: B2
[3] = molecular target: T1, full-length human 14-3-3γ fused to the …
[4] = molecular target: B7
[5] = molecular target: B5
[6] = molecular target: B1
[7] = molecular target: T2, full-length human 14-3-3ζ fused to the …
[8] = molecular target: B3
[9] = molecular target: B2
[10] = molecular target: T1, full-length human 14-3-3γ fused to the …
[11] = molecular target: B7
[12] = molecular target: B5
[13] = molecular target: B1
[14] = molecular target: T2, full-length human 14-3-3ζ fused to the …
[15] = molecular target: T3, HPV33 E6 phospho-PBM peptide p33E6 (human papillomavirus type 33)
[16] = molecular target: T4, HPV35 E6 phospho-PBM peptide p35E6 (human papillomavirus type 35)
[17] = molecular target: T3, HPV33 E6 phospho-PBM peptide p33E6; remark: listed apart in the source
[18] = molecular target: T4, HPV35 E6 phospho-PBM peptide p35E6; remark: listed apart in the source

Binder {Biotin-ttds}-RRVRKLPST[pT]L [RSK1 phospho-PBM peptide RSK1_-1P] has a Kd [1] of 1700 nM, a Kd [2] of 500 nM and a Kd [3] of 300 nM. The Kd [4] was 700 nM, the Kd [5] was 800 nM and the Kd [6] was 1600 nM. For the same binder, the Kd [7] was 1000 nM, the Kd [8] was 1710 nM and the Kd [9] was 460 nM. The Kd [10] was 310 nM, the Kd [11] was 740 nM and the Kd [12] was 780 nM. For the same binder, the Kd [13] was 1580 nM and the Kd [14] was 960 nM.

With B1 the Kd [15] was 10.3 µM and the Kd [16] was greater than 300 µM.

In the case of {Biotin-ttds}-RRVRKLPS[pT]TL [RSK1 phospho-PBM peptide RSK1_-2P], the Kd [1] is reported as 3600 nM, the Kd [2] is reported as 700 nM and the Kd [3] is reported as 200 nM. For the same binder, the Kd [4] was 1000 nM, the Kd [5] was 500 nM and the Kd [6] was 1200 nM. It also gave a Kd [7] of 1500 nM, a Kd [8] of 3570 nM and a Kd [9] of 660 nM. The Kd [11] was 960 nM, the Kd [12] was 450 nM and the Kd [13] was 1220 nM. For the same binder, the Kd [14] was 1540 nM.

In the case of B2, the Kd [15] is reported as 2 µM, the Kd [16] is reported as 163 µM and the Kd [17] is reported as 1.98 µM. For the same binder, the Kd [18] was 163 µM.

For B3, the Kd [15] was 6.8 µM, the Kd [16] was greater than 300 µM and the Kd [17] was 6.77 µM.

B4 was tested, and the Kd [17] was 5.15 µM and the Kd [18] was 363 µM.

B5 showed a Kd [15] of 3.5 µM, a Kd [16] of 233 µM and a Kd [17] of 3.52 µM. It also gave a Kd [18] of 233 µM.

B6 showed a Kd [17] of 7.94 µM and a Kd [18] greater than 300 µM.

Work on B7 yielded a Kd [15] of 4.1 µM, a Kd [16] greater than 300 µM and a Kd [17] of 4.05 µM.

Work on B8 yielded a Kd [17] of 6.92 µM and a Kd [18] greater than 400 µM.
